Test [1] concerns the target T1, 85 kD protein association with type B PDGF receptor (Mus musculus, UniProt P26450).
T1 construct: Cytoplasmic cell lysates from density-arrested BALB/c 3T3 cells were mixed with the immobilized receptor; endogenous in cells; host or cells: BALB/c 3T3 cell lysate (85 kD protein); receptor made in Sf9 insect cells with recombinant baculovirus
The test is described as follows: In vitro association of 85 kD phosphoprotein with immobilized baculovirus-expressed PDGF receptor (in vitro kinase assay). It counts as binding. The conditions noted are these: peptides (50 μM) preincubated with unstimulated 3T3 lysate, FIG. 4a.
Description: In in vitro experiments, the type B PDGF receptor was expressed in an insect cell expression system, partially purified, and immobilized using anti-receptor antibodies and protein A Sepharose. The receptor was allowed to autophosphorylate in vitro, so that it would be in a conformation that mimicked the ligand-activated state of the receptor. Cytoplasmic cell lysates from density-arrested BALB/c 3T3 cells were mixed with the immobilized receptor and the complexes were washed extensively. […] The receptor-associated phosphoproteins were detected by an in vitro kinase assay using ^32 P-ATP.
To determine the ability of a series of synthetic peptides derived from this sequence to block the interaction between the receptor and the 85 kD/PI3 kinase activity, 3T3 lysates were incubated with the different peptides prior to mixing with immobilized receptor. […] The other lanes show the proteins that associated with the receptor in the presence of derivatives of the Y719 peptide.
Infected cells were washed twice with cold PBS and lysed in 1 ml of lysis buffer (1% NP-40, 20 mM Tris (pH 8.0), 173 mM NaCl, 10% glycerol, 2 mM EDTA, 1 mM phenylmethylsulfonylfluoride (PMSF), aprotinin (0.15 U/ml), 20 μM leupeptin, 1 mM sodium orthovanadate) at 4° C. for 20 min with rocking. In most experiments (except where indicated in the legend of FIG. 3) the immunoprecipitated receptor was autophosphorylated in vitro by incubating the immune complexes in a buffer containing 20 mM Tris (pH 7.5), 20 mM MnCl, 100 μM ATP for 15 min at 25° C. Lysates were cleared of insoluble material by centrifugation at 13,000× g for 10 min. Lysates were incubated with receptor antibodies (1:500 dilution) for 4 h at 4° C. Receptor-antibody complexes were precipitated using Protein-A sepharose (Sigma) and washed consecutively with RIPA buffer (lysis buffer with 0.1% SDS), wash buffer 1 [0.5% NP-40, 0.5 M LiCl, 50 mM Tris (pH 7.4)] and with 10 mM Tris (pH 7.4). The PI3 kinase association assay was performed by incubating the immobilized receptor with BALB c/3T3 cell lysates for 3 hours at 4° C. The immune complexes were consecutively washed with cold PBS; 0.5% NP-40, 0.5 M LiCl and 51 50 mM Tris (pH 7.4).

The target of test [2] is T2, PI3 kinase association with type B PDGF receptor (Mus musculus, UniProt P26450).
T2 construct: Cytoplasmic cell lysates from density-arrested BALB/c 3T3 cells were mixed with the immobilized receptor; endogenous in cells; host or cells: BALB/c 3T3 cell lysate (85 kD protein); receptor made in Sf9 insect cells with recombinant baculovirus
Put plainly: In vitro association of PI3 kinase activity with immobilized baculovirus-expressed PDGF receptor. It counts as binding. The conditions noted are these: for Blocking of association of PI3 kinase activity with the receptor: peptides (50 μM) preincubated with unstimulated 3T3 lysate, FIG. 4b. The source says: An in vitro system was used to study the interaction of PDGF receptors and PI3 kinase. […] These phosphoproteins include the 85 kDa protein and a 110 kDa protein that have recently been correlated with PI3 kinase activity. In in vitro experiments, the type B PDGF receptor was expressed in an insect cell expression system, partially purified, and immobilized using anti-receptor antibodies and protein A Sepharose. The receptor was allowed to autophosphorylate in vitro, so that it would be in a conformation that mimicked the ligand-activated state of the receptor. Cytoplasmic cell lysates from density-arrested BALB/c 3T3 cells were mixed with the immobilized receptor and the complexes were washed extensively. PI3 kinase activity was found in the complex of proteins associated with the receptor (FIG. 1d). The receptor-associated phosphoproteins were detected by an in vitro kinase assay using ^32 P-ATP. At least four receptor-associated proteins with apparent molecular weights of 140 kD, 120/110 kD (sometimes a doublet), 85 kD and 74 kD were radiolabeled (the bands at 160 kD and 150 kD are the baculovirus-expressed receptor and its precursor, respectively). The 140 kD band has been previously identified as […] and the band at 74 kD includes the raf-1 kinase and probably another molecule as well. The 85 kD protein co-migrated with the 85 kD band, previously considered to be PI3 kinase, in anti-phosphotyrosine immunoprecipitates of cell lysates prepared from PDGF-stimulated cells. The association of 85 and 110 kD proteins with the baculovirus-expressed receptor was also observed by silver stain analysis.
To determine the ability of a series of synthetic peptides derived from this sequence to block the interaction between the receptor and the 85 kD/PI3 kinase activity, 3T3 lysates were incubated with the different peptides prior to mixing with immobilized receptor. […] The arrow indicates the position of the 85 kD protein that co-purified with the PI3 kinase activity. […]

The next test concerns the target T3, 85 kD protein (Mus musculus, UniProt P26450).
T3 construct: Cytoplasmic cell lysates from density-arrested BALB/c 3T3 cells were mixed with the immobilized receptor; endogenous in cells; host or cells: BALB/c 3T3 cell lysate (85 kD protein); receptor made in Sf9 insect cells with recombinant baculovirus
Put plainly: Receptor blot: 32P-labeled PDGF receptor probe binding to immobilized 85 kD protein. The conditions noted are these: 2.5 μM peptide, FIG. 7. The source says: FIG. 7 illustrates the association of soluble radiolabeled receptor with immobilized 85 kD protein ("receptor blot"). Baculovirus-expressed PDGF receptors were immunoprecipitated using receptor antibodies and the receptor was ^32 P-labeled in vitro by autophosphorylation. The solubilized radiolabeled receptor was used to probe nitrocellulose filters containing SDS-polyacrylamide gel-fractionated lysates from control (lanes 1, 3, 4 and 5) or PDGF stimulated (lane 2) cells. In the peptide competition experiments (lane 3, 4, and 5) the peptides were added to the nitrocellulose paper along with the radiolabeled receptor probe. The arrow indicates the position of the 85 kD protein.
To determine the nature of the interaction of the receptor with the 85 kD protein, a modification of Western blotting methodology was used. PDGF receptor from Sf9 cells infected with PDGF receptor baculovirus was immuno precipitated with receptor antibodies, labeled with ^32 P in vitro, and used as a probe to bind proteins from 3T3 cell lysates that had been separated electrophoretically and transferred to nitrocellulose. The radiolabeled PDGF receptor bound directly to an 85 kDa protein in unstimulated 3T3 cell lysate (FIG. 7, lane 1). […] The direct binding interaction appears to involve the 20 amino acid segment in the kinase insert region containing tyrosine 719, and tyrosine phosphorylation of this segment appears to be necessary for the interaction.
Cell lysate proteins transferred to nitrocellulose membranes were analyzed for their ability to bind directly to the PDGF receptor by probing the nitrocellulose membrane with ^32 P-labeled PDGF receptor. To prepare the radiolabeled receptor probe, baculovirus-expressed receptor was immunoprecipitated from 10^6 Sf9 cells. The immune complexes were washed and labeled by autophosphorylation as described above. Labeled receptor was solubilized from the immunoprecipitates by repeated incubation of the immunoprecipitate in solubilization buffer (0.4% SDS, 100 mM NaCl, 2 mM EDTA, 2 mM β-mercaptoethanol, and 50 mM triethanolamine, pH 7.4) at 100° C. for 2 min. […]

Test [3] has as its target T4, transfected type B human receptor (Homo sapiens, UniProt P09619).
T4 construct: expressed in transfected cells; host or cells: CHO (clone CHO-HR5), plasmid pSVRH5
Put plainly: Competitive binding of PDGF forms against 125I-PDGF on CHO transfectants (CHO-HR5). The method, then:
Binding was carried out at 37° C. for 45 min in whole cell suspension.

For the next test, the system named is native mouse receptor. Put plainly: Competitive binding of PDGF forms against 125I-PDGF on BALB/c 3T3 cells. The conditions noted are these: mouse 3T3 cells, yeast-expressed homodimers. The source says: The ability of the human recombinant AA and BB homodimers to compete for the type B receptor sites and displace ^125 I-labeled PDGF (prepared as described below) was studied. Each homodimer was produced selectively by a yeast expression system and was purified from yeast media that is devoid of other mesenchymal cell growth factors, thus avoiding the artifact of contamination by factors that might be present in mammalian expression systems.
BALB/c 3T3 cells and CHO transfectants (CHO-HR5) were incubated with ^125 I-PDGF in the presence of increasing concentrations of AA or BB. Binding was carried out at 37° C. for 45 min in whole cell suspension. Unbound, radiolabeled PDGF was removed by centrifugation on a Ficoll gradient Non-specific binding, determined by incubating CHO cells with ^125 I-PDGF, accounted for 25 percent of the bound radioactivity.

The target of test [4] is T5, type B receptor tyrosine kinase (Homo sapiens, UniProt P09619).
T5 construct: expressed in transfected cells; host or cells: CHO (clone CHO-HR5), plasmid pSVRH5
Put plainly: Activation of PDGF receptor tyrosine kinase (autophosphorylation, anti-phosphotyrosine Western blot) in CHO-HR5. It counts as cell-based. To be noted: transfected human receptor. The source says: Following polyacrylamide-SDS electrophoresis, the phosphorylated receptor was identified by Western blot using an anti-phosphotyrosine antibody.

“Also recorded” adds a separate entry of the source. Square brackets hold non-standard residues; d marks the D form. Ends that are not written are not given here. Peptide text beside a SMILES is read from it. pY = N[C@@H](Cc1ccc(OP(=O)(O)O)cc1)C(=O)O

T3 sequence (P26450 whole entry): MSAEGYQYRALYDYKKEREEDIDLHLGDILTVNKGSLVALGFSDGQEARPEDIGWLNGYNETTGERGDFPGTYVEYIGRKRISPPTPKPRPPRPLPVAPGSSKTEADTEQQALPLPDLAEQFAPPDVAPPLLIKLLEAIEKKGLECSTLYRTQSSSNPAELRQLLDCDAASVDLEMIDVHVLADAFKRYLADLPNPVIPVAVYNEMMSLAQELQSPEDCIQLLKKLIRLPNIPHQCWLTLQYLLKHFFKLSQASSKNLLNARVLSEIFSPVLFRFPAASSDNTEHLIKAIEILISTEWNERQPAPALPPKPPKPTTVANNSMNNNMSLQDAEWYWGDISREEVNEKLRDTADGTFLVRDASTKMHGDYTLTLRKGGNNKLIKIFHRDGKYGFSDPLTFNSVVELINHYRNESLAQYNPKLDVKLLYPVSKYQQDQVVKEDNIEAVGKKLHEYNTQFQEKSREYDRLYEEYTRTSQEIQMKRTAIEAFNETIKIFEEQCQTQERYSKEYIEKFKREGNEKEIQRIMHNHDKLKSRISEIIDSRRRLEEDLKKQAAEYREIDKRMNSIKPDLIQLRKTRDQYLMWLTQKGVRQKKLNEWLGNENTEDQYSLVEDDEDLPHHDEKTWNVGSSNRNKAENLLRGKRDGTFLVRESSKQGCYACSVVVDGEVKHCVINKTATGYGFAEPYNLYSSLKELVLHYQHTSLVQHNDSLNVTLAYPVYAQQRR
T3 sequence (P42337 whole entry partner): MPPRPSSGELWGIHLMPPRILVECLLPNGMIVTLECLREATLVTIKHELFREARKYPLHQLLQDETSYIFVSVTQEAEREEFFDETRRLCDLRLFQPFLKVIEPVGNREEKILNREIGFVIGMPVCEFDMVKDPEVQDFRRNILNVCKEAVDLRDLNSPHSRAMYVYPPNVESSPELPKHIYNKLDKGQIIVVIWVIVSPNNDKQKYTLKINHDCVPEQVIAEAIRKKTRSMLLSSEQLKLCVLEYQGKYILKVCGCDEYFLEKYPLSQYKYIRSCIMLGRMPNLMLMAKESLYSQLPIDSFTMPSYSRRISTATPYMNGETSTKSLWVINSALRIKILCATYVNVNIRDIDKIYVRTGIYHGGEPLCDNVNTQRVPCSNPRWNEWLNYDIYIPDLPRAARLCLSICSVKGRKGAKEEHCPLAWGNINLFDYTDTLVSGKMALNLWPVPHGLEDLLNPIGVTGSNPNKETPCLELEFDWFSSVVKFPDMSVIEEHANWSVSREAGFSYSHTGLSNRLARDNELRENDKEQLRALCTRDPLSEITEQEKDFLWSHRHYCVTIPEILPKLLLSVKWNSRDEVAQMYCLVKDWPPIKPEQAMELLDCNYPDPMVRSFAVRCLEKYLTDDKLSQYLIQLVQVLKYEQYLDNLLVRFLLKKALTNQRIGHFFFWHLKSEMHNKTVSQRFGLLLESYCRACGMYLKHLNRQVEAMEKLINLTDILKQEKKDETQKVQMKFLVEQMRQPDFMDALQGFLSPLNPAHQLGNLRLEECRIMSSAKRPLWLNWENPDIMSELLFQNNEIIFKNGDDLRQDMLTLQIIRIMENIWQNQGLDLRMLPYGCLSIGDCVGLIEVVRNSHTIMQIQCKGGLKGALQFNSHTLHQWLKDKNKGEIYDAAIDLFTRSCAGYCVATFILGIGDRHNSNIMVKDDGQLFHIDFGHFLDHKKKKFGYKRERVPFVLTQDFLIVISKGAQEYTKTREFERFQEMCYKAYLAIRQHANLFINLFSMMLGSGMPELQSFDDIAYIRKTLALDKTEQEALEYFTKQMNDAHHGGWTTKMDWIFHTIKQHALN
T2 sequence (P26450 whole entry): as the sequence (P26450 whole entry) above
T2 sequence (P42337 whole entry partner): as the sequence (P42337 whole entry partner) above
T1 sequence (P26450 whole entry): as the sequence (P26450 whole entry) above
T1 sequence (P42337 whole entry partner): as the sequence (P42337 whole entry partner) above
T5 sequence (P09619 33-1106): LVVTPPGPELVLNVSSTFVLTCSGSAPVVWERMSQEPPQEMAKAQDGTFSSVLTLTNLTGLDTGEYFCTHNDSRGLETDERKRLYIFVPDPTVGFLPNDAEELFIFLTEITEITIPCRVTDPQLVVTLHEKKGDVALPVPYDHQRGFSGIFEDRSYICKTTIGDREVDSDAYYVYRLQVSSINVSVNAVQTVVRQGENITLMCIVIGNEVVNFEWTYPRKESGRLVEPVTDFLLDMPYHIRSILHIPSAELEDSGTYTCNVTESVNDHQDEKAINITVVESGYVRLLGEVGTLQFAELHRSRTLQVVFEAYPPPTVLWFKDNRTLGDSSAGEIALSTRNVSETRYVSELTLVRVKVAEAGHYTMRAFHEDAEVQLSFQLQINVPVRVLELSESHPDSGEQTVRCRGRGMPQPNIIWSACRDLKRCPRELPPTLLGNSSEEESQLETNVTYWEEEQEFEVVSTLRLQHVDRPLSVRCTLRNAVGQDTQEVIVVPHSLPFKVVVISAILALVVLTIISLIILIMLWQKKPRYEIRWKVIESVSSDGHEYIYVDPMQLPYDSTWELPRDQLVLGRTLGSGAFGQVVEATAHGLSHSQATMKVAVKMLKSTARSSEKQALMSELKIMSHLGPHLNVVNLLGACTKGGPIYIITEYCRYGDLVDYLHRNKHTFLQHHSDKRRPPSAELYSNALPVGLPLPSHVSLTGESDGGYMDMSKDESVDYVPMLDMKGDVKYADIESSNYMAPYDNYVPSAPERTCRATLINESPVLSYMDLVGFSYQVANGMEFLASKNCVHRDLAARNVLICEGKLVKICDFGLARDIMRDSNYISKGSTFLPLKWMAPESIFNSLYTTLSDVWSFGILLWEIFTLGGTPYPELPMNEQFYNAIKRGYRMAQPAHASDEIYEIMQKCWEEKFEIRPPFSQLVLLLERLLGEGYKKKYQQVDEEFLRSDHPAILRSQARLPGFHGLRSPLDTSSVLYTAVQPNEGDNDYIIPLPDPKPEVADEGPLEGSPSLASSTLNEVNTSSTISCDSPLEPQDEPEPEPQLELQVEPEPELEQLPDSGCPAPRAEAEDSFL
T4 sequence (P09619 33-1106): as above

With `CC[C@H](C)[C@H](NC(=O)[C@H](CO)NC(=O)[C@H](CCC(=O)O)NC(=O)[C@H](CC(=O)O)NC(=O)[C@H](CCCCN)NC(=O)[C@H](CO)NC(=O)[C@H](CCSC)NC(=O)[C@H](CC(=O)O)NC(=O)[C@H](CCSC)NC(=O)[C@H](Cc1ccc(OP(=O)(O)O)cc1)NC(=O)CNC(=O)CN)C(=O)N[C@@H](CC(=O)O)C(=O)O` [Y708P short], the “Blocking of binding of the 85 kD phosphoprotein to the receptor” value (from here on “Blocking of binding … to the receptor”) in test [1] is reported as “had blocking activity”.

Consider `CC[C@H](C)[C@H](NC(=O)[C@H](CO)NC(=O)[C@H](CCC(=O)O)NC(=O)[C@H](CC(=O)O)NC(=O)[C@H](CCCCN)NC(=O)[C@H](CO)NC(=O)[C@H](CCSC)NC(=O)[C@H](CC(=O)O)NC(=O)[C@H](CCSC)NC(=O)[C@H](Cc1ccc(OP(=O)(O)O)cc1)NC(=O)CNC(=O)CN)C(=O)N[C@@H](CC(=O)O)C(=O)N[C@@H](Cc1ccc(OP(=O)(O)O)cc1)C(=O)N[C@H](C(=O)N1CCC[C@H]1C(=O)N[C@@H](CCSC)C(=O)N[C@@H](CC(C)C)C(=O)N[C@@H](CC(=O)O)C(=O)N[C@@H](CCSC)C(=O)O)C(C)C` [Y708P/Y719P], for which, in test [1], the “Blocking of binding … to the receptor” value is listed as “blocked binding of the 85 kD protein”.

As to `CC[C@H](C)[C@H](NC(=O)[C@H](CO)NC(=O)[C@H](CCC(=O)O)NC(=O)[C@H](CC(=O)O)NC(=O)[C@H](CCCCN)NC(=O)[C@H](CO)NC(=O)[C@H](CCSC)NC(=O)[C@H](CC(=O)O)NC(=O)[C@H](CCSC)NC(=O)[C@H](Cc1ccc(O)cc1)NC(=O)CNC(=O)CN)C(=O)N[C@@H](CC(=O)O)C(=O)N[C@@H](Cc1ccc(OP(=O)(O)O)cc1)C(=O)N[C@H](C(=O)N1CCC[C@H]1C(=O)N[C@@H](CCSC)C(=O)N[C@@H](CC(C)C)C(=O)N[C@@H](CC(=O)O)C(=O)N[C@@H](CCSC)C(=O)O)C(C)C` [Y719P], the “Blocking of binding … to the receptor” value in test [1] is “blocked the binding of the 85 kD phosphoprotein”. The compound also yielded a half-maximal inhibitory concentration (IC50) in test [2] of roughly 5 µM. The “Effect on association of radiolabeled receptor with immobilized 85 kD protein (receptor blot)” value (“Effect on association” for short) at 85 kD protein is listed as “failed to associate with the 85 kD protein”.

As for `CC[C@H](C)[C@H](NC(=O)[C@H](CO)NC(=O)[C@H](CCC(=O)O)NC(=O)[C@H](CC(=O)O)NC(=O)[C@H](CCCCN)NC(=O)[C@H](CO)NC(=O)[C@H](CCSC)NC(=O)[C@H](CC(=O)O)NC(=O)[C@H](CCSC)NC(=O)[C@H](Cc1ccc(O)cc1)NC(=O)CNC(=O)CN)C(=O)N[C@@H](CC(=O)O)C(=O)N[C@@H](Cc1ccc(O)cc1)C(=O)N[C@H](C(=O)N1CCC[C@H]1C(=O)N[C@@H](CCSC)C(=O)N[C@@H](CC(C)C)C(=O)N[C@@H](CC(=O)O)C(=O)N[C@@H](CCSC)C(=O)O)C(C)C` [Y719] (H-GGYMDMSKDESIDYVPMLDM-OH), the “Blocking of binding … to the receptor” value in test [1] is listed as “No change in the pattern of receptor-associated protein”. Besides, at 85 kD protein, the “Effect on association” value is “did not interfere with the association of the receptor with the 85 kD protein”.

On to “AA: Human recombinant AA homodimer of PDGF produced by a yeast expression system”, for which, in test [3] (CHO-HR5, yeast-expressed homodimers), the “Relative affinity for the transfected type B human receptor” value is reported as “lower affinity than the BB form”. Further, the “Competition for 125I-PDGF labeled sites” value in test [3] (human receptor transfectants, 37° C., 45 min) is reported as “competed”. Moreover, in the test with native mouse receptor, the “Relative affinity for the native mouse receptor” value is on record as “lower affinity than the BB form”. In addition, the “Activation of type B receptor tyrosine kinase (autophosphorylation)” value in test [4] is “stimulated autophosphorylation of the transfected human receptor; also recorded: activates the receptor tyrosine kinase of the type B receptor”.

For “AB: Human partially purified platelet-derived AB PDGF heterodimer”, in test [4], the “Activation of type B receptor tyrosine kinase (autophosphorylation)” value is recorded as “stimulated autophosphorylation of the transfected human receptor”.

For the compound “MDMSKDESIDYVPMLDM (MDMSKDESID[pY]VPMLDM) [Y719P short]”, the “Blocking of binding … to the receptor” value in test [1] is “blocked binding of the 85 kD protein; also recorded: had blocking activity”. Moreover, the “Blocking of association of PI3 kinase activity with the receptor” value in test [2] is “inhibited the association of PI3 kinase activity with the receptor”.

Turning to “MMDIKVPMDEYMSDYSDLGG (MMDIKVPMDE[pY]MSDYSDLGG; not fully specified; printed as MMDIKVPMDE*YMSDYSDLGG) [Y719P scrambled]”, the “Blocking of binding … to the receptor” value in test [1] is “failed to block binding of the 85 kD protein”. The “Blocking of association of PI3 kinase activity with the receptor” value in test [2] is given as “did not prevent the association of PI3 kinase activity with the receptor”. Besides, the “Effect on association” value with 85 kD protein is “did not interfere with the association of the receptor with the 85 kD protein”.

The term IC50 denotes the concentration that inhibits the measured activity by half.

The values above are taken from patent US6043211A, “Method for inhibiting the activity of a platelet-derived growth factor receptor binding protein” (The Regents of the University of California, priority 1995, dated 2000).
